Measurements: the supplement of paper PMC7877785
± gives the uncertainty stated by the source.

Assay: self-splicing fitness, log relative to wild type (ln ratio); higher = more splicing; Tetrahymena group I intron in knt gene, E. coli kanamycin selection, DiMSum; sequences stand for … in CUCUCU…GGAGGGAAAAGUUAUCAGGCAUGCACCUGGUAGCUAGUCUUUAAACCAAUAGAUUGCAUCGGUUUAAAAGGCAAGACCGUCAAAUUGCGGGAAAGGGGUCAACAGCCGUUCAGUACCAAGUCUCAGGGGAAACUUUGAGAUGGCCUUGCAAAGGGUAUGGUAAUAAGCUGACGGACAUGGUCCUAACCACGCAGCCAAGUCCUAAGUCAACAGAUCUUCUGUUGAUAUGGAUGCAGUUCACAGACUAAAUGUCGGUCGGGGAAGAUGUAUUCUUCUCAUAAGAUAUAGUCGGACCUCUCCUUAAUGGGAGCUAGCGGAUGAAGUGAUGCAACACUGGAGCCGCUGGGAACUAAUUUGUAUGCGAAAGUAUAUUGAUUAGUUUUGGAGUACUCGUGGUCG
How it was run: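 Pooled colonies went to amplicon sequencing on an Illumina HiSeq 2500 after six replicate transformations. The plates were LB agar with 100 μg/mL carbenicillin, 50 μM IPTG and 0.2% rhamnose, with or without 25 μg/mL kanamycin, incubated overnight at 37°C or 30°C. The E. coli BL21(DE3) library had all eight P1ex-region intron nucleotides randomised, the intron placed in the knt kanamycin-resistance gene on pET-22b(+). DiMSum fitness is the error-weighted combination of replicate fold changes, kanamycin against none, normalised to wild type.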

Row | Sequence | self-splicing fitness (ln) (30 °C) | self-splicing fitness (ln) (37 °C)
1 | CAGAAGCAAUAUUACGUAUA | -3.84 ± 0.21 | -1.84 ± 0.14
2 | GCACAGCAAUAUUACGGUAC | -1.17 ± 0.096 | -0.285 ± 0.1
3 | CUCGAGCAAUAUUACGACUU | -3.19 ± 0.19 | -1.73 ± 0.23
4 | GUAAAGCAAUAUUACGUAAC | -1.7 ± 0.17 | -1.38 ± 0.28
5 | UCGCAGCAAUAUUACGGUUG | -2.75 ± 0.1 | -1.47 ± 0.12
6 | CGUCAGCAAUAUUACGAAAC | -3.63 ± 0.32 | -1.6 ± 0.32
7 | GAUGAGCAAUAUUACGGAGA | -2.91 ± 0.5 | -3 ± 0.47
8 | UGAGAGCAAUAUUACGCGAU | -3.4 ± 0.33 | -2.24 ± 0.39
9 | ACAUAGCAAUAUUACGAUGU | -3.82 ± 0.16 | -2.19 ± 0.16
10 | UUCUAGCAAUAUUACGUAUA | -1.28 ± 0.19 | -0.787 ± 0.25
11 | CGCGAGCAAUAUUACGGAGA | -2.25 ± 0.23 | -2.3 ± 0.33
12 | AGCCAGCAAUAUUACGUGAU | -2.31 ± 0.075 | -1.35 ± 0.098
13 | UUUAAGCAAUAUUACGUGCC | -1.95 ± 0.21 | -0.891 ± 0.22
14 | UCACAGCAAUAUUACGUGUC | -3.55 ± 0.2 | -2.6 ± 0.2
15 | CGAAAGCAAUAUUACGAGUG | -0.203 ± 0.049 | 0.0139 ± 0.065
16 | AGGAAGCAAUAUUACGUCGG | -2.61 ± 0.15 | -1.13 ± 0.15
17 | CAUUAGCAAUAUUACGGAGA | -3.12 ± 0.41 | -2.39 ± 0.3

Row | Sequence | self-splicing fitness (ln) (30 °C) | self-splicing fitness (ln) (37 °C)
18 | GAUGAGCAAUAUUACGUCGU | -2.4 ± 0.15 | -2.13 ± 0.17
19 | AGAGAGCAAUAUUACGCUAA |  | -0.209 ± 0.21
20 | GCGGAGCAAUAUUACGAUUG | -3.31 ± 0.19 | -2.23 ± 0.24
21 | CCCUAGCAAUAUUACGGUAA | -2.69 ± 0.21 | -3.02 ± 0.32
22 | AGCGAGCAAUAUUACGCGAA | -2.39 ± 0.36 | -1.21 ± 0.32
23 | CUCAAGCAAUAUUACGGGAG | -2.91 ± 0.17 | -1.77 ± 0.18
24 | GGUAAGCAAUAUUACGAUCU | -0.636 ± 0.1 | 1.04 ± 0.13
25 | AUUUAGCAAUAUUACGUCUC | -3.59 ± 0.37 | -2.18 ± 0.3
26 | UUCUAGCAAUAUUACGAUAG |  | -2.05 ± 0.36
27 | CUCUAGCAAUAUUACGGAUU | -3.5 ± 0.21 | -2.75 ± 0.18
28 | UACGAGCAAUAUUACGACCU | -2.35 ± 0.27 | -1.82 ± 0.5
29 | ACUUAGCAAUAUUACGUUUA | -1.5 ± 0.17 | -1.07 ± 0.18
30 | GUUGAGCAAUAUUACGCCAU |  | -1.09 ± 0.35
31 | GGUGAGCAAUAUUACGCAUA | -0.925 ± 0.15 | -1.55 ± 0.22
32 | AGCUAGCAAUAUUACGGGCG | -0.507 ± 0.098 | -0.799 ± 0.15
33 | GUGGAGCAAUAUUACGGCGG | -3.32 ± 0.29 | -1.54 ± 0.27
34 | CCGGAGCAAUAUUACGUGAA |  | -1.86 ± 0.31
